Laboratory results from US20180036405A1 (Regeneron, published 2018).

Tests used:
[1] = target: T1, EGFR on A431 epidermoid carcinoma cells (human, UniProt P00533 25-1210); test: cell-based or functional assay
[2] = target: T2, human dimeric EGFR (EGFR.mFc) (human); test: SPR 37C, mAb captured by anti-human Fc, EGFR.mFc analyte
T2 construct: Soluble dimeric EGFR construct
Protocol: (§1) Different concentrations of human monomeric (EGFR.mmh; SEQ ID NO:386) and dimeric (EGFR.mFc; SEQ ID NO:387) proteins were injected over the anti-EGFR monoclonal antibody captured surface at a flow rate of 50 μI/min. Antibody-antigen association was monitored for 4-5 minutes while dissociation of antigen from the captured monoclonal antibody surface was monitored for 10 min. Kinetic association (kₐ) and dissociation (kd) rate constants were determined by processing and fitting the data to a 1:1 binding model using Scrubber 2.0 curve fitting software.

[3] = target: T3, human monomeric EGFR (EGFR.mmh) (human, UniProt P00533 25-647); test: SPR 37C, mAb captured by anti-human Fc, EGFR.mmh analyte
T3 construct: Soluble monomeric EGFR construct
Protocol: as §1

[4] = target: T1, EGFR on A431 epidermoid carcinoma cells; test: cell-based or functional assay; remark: listed apart in the source

B1: H1H159P (antibody, human IgG1, V domains shown)
VH: EVQLVESGGGLVQPGGSLRLSCAASRFTFTNYWMSWVRQAPGKGLEWVAKIKQDGSEKYYLDSVKDRFTISRDNAKNSLYLQMNSLRAEDTAVYYCASSSSWYDYYYGMDVWGHGTTVTVSS
VL: EIVLTQSPDFQSVTPKEKVTITCRASQSIGTNLHWYQQRPDQSPKLLIKFASQSFSGVPSRFSGSGSGTDFTLTINSLEAEDAATYYCHQTNFLPHTFGGGTKVEIKR
notes: Human IgG1 Fc (H1H)
ADCC EC50 [1]: 2.69e-09 Molar | Maximum Cell Killing (%) [1]: 60% | Kd [2]: 0.00344 nM | koff [2]: 5.63e-06 s⁻¹ | kon [2]: 1.64e+06 M⁻¹ s⁻¹ | t1/2 [2]: 2050 min | Kd [3]: 0.682 nM | koff [3]: 0.000325 s⁻¹ | kon [3]: 476000 M⁻¹ s⁻¹ | t1/2 [3]: 36 min

B2: H1H169P (antibody, human IgG1, V domains shown)
VH: EVQLVESGGGLVQPGGSLRLSCAASRFTFSTYWMSWVRQAPGKGLEWVAKIKQDGSEKYYLDSVKDRFTISRDNAKNSLYLQMNSLRAEDTAVYYCASSITWYDYYYGMDVWGHGTTVTVSS
VL: EIVLTQSPDFQSVTPKEKVTITCRASQSIGSNLHWYQQKPDQSPNLLIKFASQSFSGVPSRFSGSGSGTDFTLTINSLEAEDAATYYCHQTNFLPHTFGGGTKVEIK
notes: Human IgG1 Fc (H1H)
ADCC EC50 [1]: 4.81e-09 Molar | Maximum Cell Killing (%) [1]: 27% | Kd [2]: 0.00736 nM | koff [2]: 1.69e-05 s⁻¹ | kon [2]: 2.29e+06 M⁻¹ s⁻¹ | t1/2 [2]: 684 min | Kd [3]: 1.31 nM | koff [3]: 0.000869 s⁻¹ | kon [3]: 665000 M⁻¹ s⁻¹ | t1/2 [3]: 13 min

B3: H1H153P (antibody, human IgG1, V domains shown)
VH: QVQLVESGGGVVQPGKSLRLSCAASGFTFSIYGMNWVRQAPGKGLDWVAVISDDGSNKDYVDSVRGRFTISRDNSKNTLYLQMNSLSAEDTAVYYCAKDRITGTHYYGLDVWGQGTTVTVSS
VL: DIQMTQSPSSLSASVGDRITITCRASQDIANYLAWFQQKPGNAPTSLIYAASILQSGVPSKFSGSGSGTDFTLTITSLQPEDFASYYCQQYNRKPWTFGRGTKVEIK
notes: Human IgG1 Fc (H1H)
ADCC EC50 [1]: 2.65e-11 Molar | Maximum Cell Killing (%) [1]: 31% | Kd [2]: 0.0351 nM | koff [2]: 8.23e-06 s⁻¹ | kon [2]: 234000 M⁻¹ s⁻¹ | t1/2 [2]: 1400 min | Kd [3]: 3.09 nM | koff [3]: 0.000235 s⁻¹ | kon [3]: 76100 M⁻¹ s⁻¹ | t1/2 [3]: 49 min

B4: H1H171P (antibody, human IgG1, V domains shown)
VH: QVQLVESGGGVVQPGRSLRLSCAASGFTFSIYGMNWVRQGPGKGLDWVAVISDDGSNKDYVDSVRGRFTISRDNSKNTLYLQMNSLSAEDTAVYYCAKDRITGTHYYGMDVWGQGTTVTVSS
VL: DIQMTQSPSSLSASVGDRITITCRASQDIANYLAWFQQKPGNAPTSLIYAASILQSGVPSKFSGSGSGTDFTLTITSLQPEDFASYYCQQYNRKPWTFGRGTKVEIK
notes: Human IgG1 Fc (H1H)
ADCC EC50 [1]: 8.94e-13 Molar | Maximum Cell Killing (%) [1]: 27% | Kd [2]: 0.103 nM | koff [2]: 3.48e-05 s⁻¹ | kon [2]: 339000 M⁻¹ s⁻¹ | t1/2 [2]: 332 min | Kd [3]: 14.2 nM | koff [3]: 0.00113 s⁻¹ | kon [3]: 79400 M⁻¹ s⁻¹ | t1/2 [3]: 10 min

B5: H1H155P (antibody, human IgG1, V domains shown)
VH: QVQLVESGGGVVQPGRSLRLSCAASGFTFSIYGMHWVRQAPGKGLEWVTVISDDGSKKYYVDSVKGRFTLSRDNSKNTLYLQMNSLRAEDTAVYYCARDRITGTNWYGMDVWGQGTTVTVSS
VL: DIQMTQSPSSLSASVGDRVTITCRASQDISNYLAWFQQKPGKAPKSLIFAASSLQSGGPSKFSGSGSGTDFTLTISSLQPEDFATYYCQQYNRYPFTFGPGTKVDIK
notes: Human IgG1 Fc (H1H)
ADCC EC50 [1]: 1.67e-11 Molar | Maximum Cell Killing (%) [1]: 30% | Kd [2]: 0.321 nM | koff [2]: 0.000106 s⁻¹ | kon [2]: 329000 M⁻¹ s⁻¹ | t1/2 [2]: 109 min | Kd [3]: 0.962 nM | koff [3]: 0.000169 s⁻¹ | kon [3]: 176000 M⁻¹ s⁻¹ | t1/2 [3]: 68 min

B6: H1H136P (antibody, human IgG1, V domains shown)
VH: EVQLVESGGGLVQPGGSLRLSCAASGFTFSSYDMSWVRQAPGKGLEWVSGISGSGDSTYYAGSVKGRFTISRDNSKNTLYLQMNSLRAEDTAVYYCAYDYSNYWDHYGMDVWGQGTTVTVSS
VL: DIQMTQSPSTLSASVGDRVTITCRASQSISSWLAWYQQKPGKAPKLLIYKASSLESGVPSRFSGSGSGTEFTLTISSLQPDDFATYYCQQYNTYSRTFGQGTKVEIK
notes: Human IgG1 Fc (H1H)
ADCC EC50 [1]: 1.49e-09 Molar | Maximum Cell Killing (%) [1]: 27% | binding result [2]: no binding | binding result [3]: no binding

B7: H1H0085N (antibody, V domains shown)
VH: EVQLVESGGGLVQPGRSLRLSCAASGFTFDDYAMHWVRQAPGKGLEWVSGINWNSDKIAYADSVKGRFTISRDNAENSLFLQMNSLRPEDTALYYCVKRGDFWTEYYDYWGQGTLVTVSS
VL: DIVMTQSPLSLPVTPGEPASISCRSSQSLLHSNGYNYLDWYLQKPGQSPHLLIYLVSTRASGVPDRFSGSGSGTDFTLKISRVEAEDVGVYYCIQALQTPWTFGQGTKVEIK
notes: Tested in human IgG1 Fc format (H1H prefix); first obtained as H1M (mouse IgG1 Fc) from a hybridoma; also called H1M085N; H1H085N
IC50 of A431 Proliferation [4]: 1.65e-09 Molar | ADCC EC50 [1]: 3.7e-13 Molar | Maximum Cell Killing (%) [1]: 35% | Kd [2]: 0.12 nM | koff [2]: 4.05e-05 s⁻¹ | kon [2]: 336000 M⁻¹ s⁻¹ | t1/2 [2]: 286 min | Kd [3]: 15.5 nM | koff [3]: 0.00185 s⁻¹ | kon [3]: 119000 M⁻¹ s⁻¹ | t1/2 [3]: 6 min

B8: H1H086N (antibody, human IgG1, V domains shown)
VH: EVQLVESGGGLVQPGRSLRLSCAASGFTFDDYAMHWVRQAPGKGLEWVSGINWNSDKIAYADSVKGRFTISRDNAENSLFLQMNSLRPEDTALYYCVKRGDFWTDYYDYWGQGTLVTVSS
VL: DIVMTQSPLSLPVTPGEPASISCRSSQSLLHSNGYNYLDWYLQKPGQSPHLLIYLVSTRASGVPDRFSGSGSGTDFTLKISRVEAEDVGVYYCMQALQTPWTFGQGTKVEIK
notes: Tested in human IgG1 Fc format (H1H); also called H1M086N
IC50 of A431 Proliferation [4]: 5.46e-10 Molar | ADCC EC50 [1]: 2.91e-13 Molar | Maximum Cell Killing (%) [1]: 25% | Kd [2]: 0.00598 nM | koff [2]: 1.13e-05 s⁻¹ | kon [2]: 1.9e+06 M⁻¹ s⁻¹ | t1/2 [2]: 1020 min | Kd [3]: 1.31 nM | koff [3]: 0.000708 s⁻¹ | kon [3]: 540000 M⁻¹ s⁻¹ | t1/2 [3]: 16 min

B9: H1H157P (antibody, human IgG1, V domains shown)
VH: QVQLVESGGGVVQPGRSLRLTCKASGFTFSIYGINWVRQASGKGLDWVAVISDDGSDKKYADSVKGRFTISRDNSKNTVYLEMSRLRSEDTAVYFCAKDRFTGNHYYGMDVWGQGTTVTVSS
VL: DIQMTQSPSSLSASVGDRVSITCRASQDISDYLAWFQQKPGKAPKSLIYAASILQNGVPSRFSGSGSGTDFTLTISSLQPEDFALYYCHQYNRFPWTFGQGTKVEIK
notes: Human IgG1 Fc (H1H)
ADCC EC50 [1]: 2.27e-13 Molar | Maximum Cell Killing (%) [1]: 36% | binding result [2]: no binding | binding result [3]: no binding

B10: H1H158P (antibody, human IgG1, V domains shown)
VH: QVQLVESGGGVVQPGGSLRLSCAASGFTFSIYGIHWVRQAPGKGLEWVAVISDDGSNKKYADSVKGRFTISRDNSKNTLYLQMNSLRAEDTAIFYCAKDRITGTHYYGMDVWGQGTTVTVSS
VL: DIQMTQSPSSLSASVGDRVSITCRASQDISNYLAWFQQKPGKAPKSLIYAASSLQSGVPSKFSGSGSGIEFTLTISSLQPEDFSTYYCHQYNRFPWTFGQGTKVEIK
notes: Human IgG1 Fc (H1H)
ADCC EC50 [1]: 2.32e-12 Molar | Maximum Cell Killing (%) [1]: 28% | Kd [2]: 0.0241 nM | koff [2]: 9.84e-06 s⁻¹ | kon [2]: 408000 M⁻¹ s⁻¹ | t1/2 [2]: 1170 min | Kd [3]: 5.9 nM | koff [3]: 0.000773 s⁻¹ | kon [3]: 131000 M⁻¹ s⁻¹ | t1/2 [3]: 15 min

B11: H1H151P (antibody, human IgG1, V domains shown)
VH: QVQLQESGPGLVNPSQTLSLTCTVSGGSINSGDYYWSWVRQHPGKGLEWIGYIYYSGSTYYNPSLKSRVTISVDTSKNQFSLKLSSVTVADTAVYYCARVGYSKGYFDSWGQGTLVTVSS
VL: DIQMTQSPSTLSASVGDRVTITCRASESISSWLAWYQQKPGKAPKVLIYDASSLESGVPSRFSGSGSGTEYTLTISSLQPDDFASYYCQQYKSYWTFGQGTKVEIK
notes: Human IgG1 Fc (H1H)
IC50 of A431 Proliferation [4]: 2.77e-10 Molar | ADCC EC50 [1]: 5.48e-09 Molar | Maximum Cell Killing (%) [1]: 68% | Kd [3]: 8.4 nM | koff [3]: 0.00113 s⁻¹ | kon [3]: 134000 M⁻¹ s⁻¹ | t1/2 [3]: 10 min

B12: H1H145P (antibody, human IgG1, V domains shown)
VH: EVQLVESGGGVVQPGGSLRLSCAASGFTFDDYAMHWVRQAPGKGLEWVSLISGDGGSTYYADSVKGRFTISRDNSKNSLYLQMNSLRTEDTALYYCAKNYDSSGYYYPYYYYYGMDVWGQGTTVTVSS
VL: not shown
notes: Human IgG1 Fc (H1H)
Maximum Cell Killing (%) [1]: 0% | Kd [2]: 0.232 nM | koff [2]: 5.86e-05 s⁻¹ | kon [2]: 252000 M⁻¹ s⁻¹ | t1/2 [2]: 197 min | Kd [3]: 1.43 nM | koff [3]: 0.000195 s⁻¹ | kon [3]: 137000 M⁻¹ s⁻¹ | t1/2 [3]: 59 min

B13: H1H161P (antibody, human IgG1, V domains shown)
VH: QVQLVESGGGVVQPGRSLRLSCAASGFTFSNYGMYWVRQAPGKGLEWVTFISYDGSNKNYVDSMKGRFTISRDNSKNTLYLQMNSLRVEDTAVYYCAKDRISGTPWYGMDVWGQGTTVTVSS
VL: DIQMTQSPSSLSASVGDRVTITCRASQDIADYLAWFQQKPGKAPKSLIFAASSLESWVPLKFSGSGSGTDFTLTISSLQPEDFATYYCQQYSRFPITFGQGTKVEIK
notes: Human IgG1 Fc (H1H)
ADCC EC50 [1]: 9.8e-12 Molar | Maximum Cell Killing (%) [1]: 38% | Kd [2]: 0.00159 nM | koff [2]: 2.76e-06 s⁻¹ | kon [2]: 1.73e+06 M⁻¹ s⁻¹ | t1/2 [2]: 4190 min | Kd [3]: 0.655 nM | koff [3]: 0.000321 s⁻¹ | kon [3]: 489000 M⁻¹ s⁻¹ | t1/2 [3]: 36 min

B14: H1H163P (antibody, human IgG1, V domains shown)
VH: QVQLVESGGGVVQPGRSLRLSCAASGFTFSNYGMHWVRQAPGKGLEWVTLIEHDGSNKNYVDSVKGRFTISRDNSKNTLYLQMNSLRVEDTAVYYCAKDRITGTPWYGMDVWGQGTTVTVSS
VL: DIQMTQSPSSLSASVGDRVTITCRASQDIADYLAWFQQKPGKAPKSLIFAASSLESWVPLKFSGSGSGTDFTLTISSLQPEDFATYYCQQYNRFPITFGQGTRLEIK
notes: Human IgG1 Fc (H1H)
ADCC EC50 [1]: 2.96e-10 Molar | Maximum Cell Killing (%) [1]: 48% | Kd [2]: 0.00117 nM | koff [2]: 2.12e-06 s⁻¹ | kon [2]: 1.81e+06 M⁻¹ s⁻¹ | t1/2 [2]: 5450 min | Kd [3]: 0.834 nM | koff [3]: 0.000426 s⁻¹ | kon [3]: 511000 M⁻¹ s⁻¹ | t1/2 [3]: 27 min
